Laboratory results from PMC12487280.

What was measured:
[1] = UBAP2L/G3BP1 immunostaining, granules per cell; conditions: glycan lost; control: sunitinib without OSMI-1
[2] = CHX-chase, Western blot, ccRCC cells; conditions: glycan lost; control: WT / shCtrl / untreated
[3] = Western blot of UBAP2L, ccRCC cells; conditions: control: shCtrl / untreated
[4] = Flag IP, HA-Ub blot, MG132; conditions: control: shCtrl
qPCR, 786-O and Caki-1 = conditions: glycan lost; control: UBAP2L-WT overexpression
[5] = CCK-8 dose response, 786-O and Caki-1; conditions: glycan lost; control: UBAP2L-WT overexpression
[6] = UBAP2L/G3BP1 immunostaining after sunitinib; conditions: glycan lost; control: UBAP2L-WT overexpression

B1: UBAP2L: OSMI-1 (protein)
parent chain: MMTSVGTNRARGNWEQPQNQNQTQHKQRPQATAEQIRLAQMISDHNDADFEEKVKQLIDITGKNQDECVIALHDCNGDVNRAINVLLEGNPDTHSWEMVGKKKGVSGQKDGGQTESNEEGKENRDRDRDYSRRRGGPPRRGRGASRGREFRGQENGLDGTKSGGPSGRGTERGRRGRGRGRGGSGRRGGRFSAQGMGTFNPADYAEPANTDDNYGNSSGNTWNNTGHFEPDDGTSAWRTATEEWGTEDWNEDLSETKIFTASNVSSVPLPAENVTITAGQRIDLAVLLGKTPSTMENDSSNLDPSQAPSLAQPLVFSNSKQTAISQPASGNTFSHHSMVSMLGKGFGDVGEAKGGSTTGSQFLEQFKTAQALAQLAAQHSQSGSTTTSSWDMGSTTQSPSLVQYDLKNPSDSAVHSPFTKRQAFTPSSTMMEVFLQEKSPAVATSTAAPPPPSSPLPSKSTSAPQMSPGSSDNQSSSPQPAQQKLKQQKKKASLTSKIPALAVEMPGSADISGLNLQFGALQFGSEPVLSDYESTPTTSASSSQAPSSLYTSTASESSSTISSNQSQESGYQSGPIQSTTYTSQNNAQGPLYEQRSTQTRRYPSSISSSPQKDLTQAKNGFSSVQATQLQTTQSVEGATGSAVKSDSPSTSSIPPLNETVSAASLLTTTNQHSSSLGGLSHSEEIPNTTTTQHSSTLSTQQNTLSSSTSSGRTSTSTLLHTSVESEANLHSSSSTFSTTSSTVSAPPPVVSVSSSLNSGSSLGLSLGSNSTVTASTRSSVATTSGKAPPNLPPGVPPLLPNPYIMAPGLLHAYPPQVYGYDDLQMLQTRFPLDYYSIPFPTPTTPLTGRDGSLASNPYSGDLTKFGRGDASSPAPATTLAQPQQNQTQTHHTTQQTFLNPALPPGYSYTSLPYYTGVPGLPSTFQYGPAVFPVAPTSSKQHGVNVSVNASATPFQQPSGYGSHGYNTGVSVTSSNTGVPDISGSVYSKTQQSFEKQGFHSGTPAASFNLPSALGSGGPINPATAAAYPPAPFMHILTPHQQPHSQILHHHLQQDGQTGSGQRSQTSSIPQKPQTNKSAYNSYSWGAN
other: stress granule formation [1]: decreases
degradation_or_half_life [2]: decreases
expression_or_secretion ([3]; glycan lost): decreases

B2: UBAP2L: shOGT (protein)
parent chain: B1 parent chain
other: ubiquitination ([4]; glycan lost): increases

B3: UBAP2L: OGA knockdown (protein)
parent chain: B1 parent chain
expression_or_secretion ([3]; glycan gained): increases

B4: UBAP2L: shOGA (protein)
parent chain: B1 parent chain
other: ubiquitination ([4]; glycan gained): decreases

B5: UBAP2L: OGT knockdown (protein)
parent chain: B1 parent chain
degradation_or_half_life [2]: decreases
expression_or_secretion ([3]; glycan lost): decreases

B6: UBAP2L: UBAP2L-MUT (S305A) (protein)
parent chain: B1 parent chain
other: Melk mRNA level (qPCR, 786-O and Caki-1): decreases

B7: UBAP2L: S305A (protein)
parent chain: B1 parent chain
other: sunitinib resistance of cells, IC50 [5]: decreases
other: stress granule formation [6]: decreases
degradation_or_half_life [2]: decreases
